Data taken from patent US7410949 (Hoffmann-La Roche, dated 2008).
*1 amine or outer side, *2 acyl side, *3 side chain or, on linkers, in order; H or OH if unused. [ ]: non-standard residue; d: D form. Pqa = N-piperazin-1-yl-4(3H)-quinazolinone-3-acetic acid, O=C(Cn1cnc2ccc(N3CCN([*:1])CC3)cc2c1=O)[*:2]; Bip = N[C@@H](Cc1ccc(-c2ccccc2)cc1)C(=O)O; Dip = N[C@H](C(=O)O)C(c1ccccc1)c1ccccc1; 1Nal = N[C@@H](Cc1cccc2ccccc12)C(=O)O; 3Pal = N[C@@H](Cc1cccnc1)C(=O)O; Nle = CCCC[C@H](N)C(=O)O

Experiments:
Y4R = assay: cell-based or functional assay
Y1R = assay: cell-based or functional assay
Sequence of Y1R (P25929 whole entry): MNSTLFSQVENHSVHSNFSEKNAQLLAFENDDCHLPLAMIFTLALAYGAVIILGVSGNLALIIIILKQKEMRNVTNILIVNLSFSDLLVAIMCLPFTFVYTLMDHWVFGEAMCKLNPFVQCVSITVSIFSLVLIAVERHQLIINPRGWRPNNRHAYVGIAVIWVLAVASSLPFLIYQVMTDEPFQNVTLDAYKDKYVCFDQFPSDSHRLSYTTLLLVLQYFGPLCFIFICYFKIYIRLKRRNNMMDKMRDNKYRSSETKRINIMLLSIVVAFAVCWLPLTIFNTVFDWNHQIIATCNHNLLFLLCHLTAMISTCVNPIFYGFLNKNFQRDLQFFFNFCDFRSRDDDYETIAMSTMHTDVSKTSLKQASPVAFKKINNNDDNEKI

Row | Y4R EC50(nM) FLIPR (Y4R) | Y1R EC50(nM) FLIPR (Y1R) | Binder
1 | > 5000 nM |  | IKRHYLNLVTRQRY ((D)Arg at PYY position 25 (residue 1 of the second part); Pqa moiety between the two parts; C-terminal amide) [H-Ile-Lys-Pqa-(D)Arg-His-Tyr-Leu-Asn-Leu-Val-Thr-Arg-Gln-Arg-Tyr-NH2]
2 | > 5000 nM | > 5000 nM | Ac-I[Nle][Pqa]FHYLNLVTRQRY-NH2 (SMILES CCCC[C@H](NC(=O)[C@@H](NC(C)=O)[C@@H](C)CC)C(=O)N1CCN(c2ccc3ncn(CC(=O)N[C@@H](Cc4ccccc4)C(=O)N[C@@H](Cc4c[nH]cn4)C(=O)N[C@@H](Cc4ccc(O)cc4)C(=O)N[C@@H](CC(C)C)C(=O)N[C@@H](CC(N)=O)C(=O)N[C@@H](CC(C)C)C(=O)N[C@H](C(=O)N[C@H](C(=O)N[C@@H](CCCNC(=N)N)C(=O)N[C@@H](CCC(N)=O)C(=O)N[C@@H](CCCNC(=N)N)C(=O)N[C@@H](Cc4ccc(O)cc4)C(N)=O)[C@@H](C)O)C(C)C)c(=O)c3c2)CC1) [Ac-Ile-Nle-Pqa-Phe-His-Tyr-Leu-Asn-Leu-Val-Thr-Arg-Gln-Arg-Tyr-NH2]
3 | > 5000 nM |  | Ac-I[Nle][Pqa]R[3Pal]YLNLVTRQRY-NH2 (SMILES CCCC[C@H](NC(=O)[C@@H](NC(C)=O)[C@@H](C)CC)C(=O)N1CCN(c2ccc3ncn(CC(=O)N[C@@H](CCCNC(=N)N)C(=O)N[C@@H](Cc4cccnc4)C(=O)N[C@@H](Cc4ccc(O)cc4)C(=O)N[C@@H](CC(C)C)C(=O)N[C@@H](CC(N)=O)C(=O)N[C@@H](CC(C)C)C(=O)N[C@H](C(=O)N[C@H](C(=O)N[C@@H](CCCNC(=N)N)C(=O)N[C@@H](CCC(N)=O)C(=O)N[C@@H](CCCNC(=N)N)C(=O)N[C@@H](Cc4ccc(O)cc4)C(N)=O)[C@@H](C)O)C(C)C)c(=O)c3c2)CC1) [Ac-Ile-Nle-Pqa-Arg-(3-Pal)-Tyr-Leu-Asn-Leu-Val-Thr-Arg-Gln-Arg-Tyr-NH2]
4 | > 5000 nM | > 5000 nM | IKRHYLNLVTRQRY (N-methyl Tyr at PYY position 27 (residue 3 of the second part); Pqa moiety between the two parts; C-terminal amide) [H-Ile-Lys-Pqa-Arg-His-(NMe)Tyr-Leu-Asn-Leu-Val-Thr-Arg-Gln-Arg-Tyr-NH2]
5 | > 5000 nM |  | IKRHYLNLVTRQRY (N-methyl His at PYY position 26 (residue 2 of the second part); Pqa moiety between the two parts; C-terminal amide) [H-Ile-Lys-Pqa-Arg-(NMe)His-Tyr-Leu-Asn-Leu-Val-Thr-Arg-Gln-Arg-Tyr-NH2]
6 | > 5000 nM |  | Ac-I[Nle][Pqa]RH[1Nal]LNLVTRQRY-NH2 (SMILES CCCC[C@H](NC(=O)[C@@H](NC(C)=O)[C@@H](C)CC)C(=O)N1CCN(c2ccc3ncn(CC(=O)N[C@@H](CCCNC(=N)N)C(=O)N[C@@H](Cc4c[nH]cn4)C(=O)N[C@@H](Cc4cccc5ccccc45)C(=O)N[C@@H](CC(C)C)C(=O)N[C@@H](CC(N)=O)C(=O)N[C@@H](CC(C)C)C(=O)N[C@H](C(=O)N[C@H](C(=O)N[C@@H](CCCNC(=N)N)C(=O)N[C@@H](CCC(N)=O)C(=O)N[C@@H](CCCNC(=N)N)C(=O)N[C@@H](Cc4ccc(O)cc4)C(N)=O)[C@@H](C)O)C(C)C)c(=O)c3c2)CC1) [Ac-Ile-Nle-Pqa-Arg-His-(1)Nal-Leu-Asn-Leu-Val-Thr-Arg-Gln-Arg-Tyr-NH2]
7 | > 5000 nM | > 5000 nM | IKRHYLNLVTRQRY (N-methyl Thr at PYY position 32 (residue 8 of the second part); Pqa moiety between the two parts; C-terminal amide) [H-Ile-Lys-Pqa-Arg-His-Tyr-Leu-Asn-Leu-Val-(NMe)Thr-Arg-Gln-Arg-Tyr-NH2]
8 | > 5000 nM | > 5000 nM | IKRHYLNLVTRQRY ((D)Lys at PYY position 4 (residue 2 of the first part); Pqa moiety between the two parts; C-terminal amide) [H-Ile-(D)Lys-Pqa-Arg-His-Tyr-Leu-Asn-Leu-Val-Thr-Arg-Gln-Arg-Tyr-NH2]
9 | > 5000 nM |  | Ac-I[Nle][Pqa]RH[Bip]LNLVTRQRY-NH2 (SMILES CCCC[C@H](NC(=O)[C@@H](NC(C)=O)[C@@H](C)CC)C(=O)N1CCN(c2ccc3ncn(CC(=O)N[C@@H](CCCNC(=N)N)C(=O)N[C@@H](Cc4c[nH]cn4)C(=O)N[C@@H](Cc4ccc(-c5ccccc5)cc4)C(=O)N[C@@H](CC(C)C)C(=O)N[C@@H](CC(N)=O)C(=O)N[C@@H](CC(C)C)C(=O)N[C@H](C(=O)N[C@H](C(=O)N[C@@H](CCCNC(=N)N)C(=O)N[C@@H](CCC(N)=O)C(=O)N[C@@H](CCCNC(=N)N)C(=O)N[C@@H](Cc4ccc(O)cc4)C(N)=O)[C@@H](C)O)C(C)C)c(=O)c3c2)CC1) [Ac-Ile-Nle-Pqa-Arg-His-Bip-Leu-Asn-Leu-Val-Thr-Arg-Gln-Arg-Tyr-NH2]
10 | > 5000 nM |  | IKRHYLNLVTRQRY ((D)Tyr at PYY position 36 (residue 12 of the second part); Pqa moiety between the two parts; C-terminal amide) [H-Ile-Lys-Pqa-Arg-His-Tyr-Leu-Asn-Leu-Val-Thr-Arg-Gln-Arg-(D)Tyr-NH2]
11 | > 5000 nM |  | H-IK[Pqa]AHYLNLVTRQRY-NH2 (SMILES CC[C@H](C)[C@H](N)C(=O)N[C@@H](CCCCN)C(=O)N1CCN(c2ccc3ncn(CC(=O)N[C@@H](C)C(=O)N[C@@H](Cc4c[nH]cn4)C(=O)N[C@@H](Cc4ccc(O)cc4)C(=O)N[C@@H](CC(C)C)C(=O)N[C@@H](CC(N)=O)C(=O)N[C@@H](CC(C)C)C(=O)N[C@H](C(=O)N[C@H](C(=O)N[C@@H](CCCNC(=N)N)C(=O)N[C@@H](CCC(N)=O)C(=O)N[C@@H](CCCNC(=N)N)C(=O)N[C@@H](Cc4ccc(O)cc4)C(N)=O)[C@@H](C)O)C(C)C)c(=O)c3c2)CC1) [H-Ile-Lys-Pqa-Ala-His-Tyr-Leu-Asn-Leu-Val-Thr-Arg-Gln-Arg-Tyr-NH2]
12 | > 5000 nM |  | IKRHYLNLVTRQRY (N-methyl Arg at PYY position 25 (residue 1 of the second part); Pqa moiety between the two parts; C-terminal amide) [H-Ile-Lys-Pqa-(NMe)Arg-His-Tyr-Leu-Asn-Leu-Val-Thr-Arg-Gln-Arg-Tyr-NH2]
13 | > 5000 nM |  | Ac-I[Nle][Pqa]RH[Dip]LNLVTRQRY-NH2 (SMILES CCCC[C@H](NC(=O)[C@@H](NC(C)=O)[C@@H](C)CC)C(=O)N1CCN(c2ccc3ncn(CC(=O)N[C@@H](CCCNC(=N)N)C(=O)N[C@@H](Cc4c[nH]cn4)C(=O)N[C@H](C(=O)N[C@@H](CC(C)C)C(=O)N[C@@H](CC(N)=O)C(=O)N[C@@H](CC(C)C)C(=O)N[C@H](C(=O)N[C@H](C(=O)N[C@@H](CCCNC(=N)N)C(=O)N[C@@H](CCC(N)=O)C(=O)N[C@@H](CCCNC(=N)N)C(=O)N[C@@H](Cc4ccc(O)cc4)C(N)=O)[C@@H](C)O)C(C)C)C(c4ccccc4)c4ccccc4)c(=O)c3c2)CC1) [Ac-Ile-Nle-Pqa-Arg-His-Dip-Leu-Asn-Leu-Val-Thr-Arg-Gln-Arg-Tyr-NH2]
14 | > 5000 nM | > 5000 nM | IKRHYLNLVTRQRY (N-methyl Arg at PYY position 33 (residue 9 of the second part); Pqa moiety between the two parts; C-terminal amide) [H-Ile-Lys-Pqa-Arg-His-Tyr-Leu-Asn-Leu-Val-Thr-(NMe)Arg-Gln-Arg-Tyr-NH2]
15 | > 5000 nM |  | IKRHYLNLVTRQRY (N-methyl Lys at PYY position 4 (residue 2 of the first part); Pqa moiety between the two parts; C-terminal amide) [H-Ile-NMeLys-Pqa-Arg-His-Tyr-Leu-Asn-Leu-Val-Thr-Arg-Gln-Arg-Tyr-NH2]
